In article PMC9769804:

Test system: SaraC (Stereum hirsutum FP-91666)
Test: SPR
Conditions: S-adenosylmethionine (16 mM, protein pre-incubation), SPR Biacore T200, CM5 anti-His capture, 1x PBS with 5% DMSO pH 7.5 (protein/SAM mix), oligos in 1x PBS, 25 C, 5 uL/min, analyte 0.25-4 uM (Fig. 1 legend …)

For ATCCAGAGCGAGCCTATTACG [Oligo1309], which Kd (called weak, 6mA at positions 7 and 11) is on record?
The Kd was 1670 nM.

CGATCGGATTTGACGGTT [Oligo5564] was tested. Which Kd (two methyl groups, printed mG at positions 7 and 12, text calls these oligos 5mC or 6mA, so methylated base is ambiguous) did it give?
Its Kd is 821 nM.

With GATTCCTTC [Oligo7291] as the sequence, how does the Kd (5mC at position 5) read?
The Kd was 662 nM.
